Experimental data taken from publication PMC4729957, “The Atg1–kinase complex tethers Atg9-vesicles to initiate autophagy” (Nature Communications, 2016).

B6: Atg9^core (Atg9^281–779), reconstituted in proteoliposomes (domain or fragment, S. cerevisiae, UniProt Q12142 281-779, looked up)
chain: EDRINTLSVKERALWKWANVENLDIFLQDVYNYYLGNGFYCIILEKILNICTLLFVVFVSTYMGHCVDYSKLPTSHRVSDIIIDKCYSNSITGFTKFFLWMFYFFVILKIVQLYFDVQKLSELQNFYKYLLNISDDELQTLPWQNVIQQLMYLKDQNAMTANVVEVKAKNRIDAHDVANRIMRRENYLIALYNSDILNLSLPIPLFRTNVLTKTLEWNINLCVMGFVFNESGFIKQSILKPSQREFTREELQKRFMLAGFLNIILAPFLVTYFVLLYFFRYFNEYKTSPGSIGARQYTPIAEWKFREYNELYHIFKKRISLSTTLANKYVDQFPKEKTNLFLKFVSFICGSFVAILAFLTVFDPENFLNFEITSDRSVIFYITILGAIWSVSRNTITQEYHVFDPEETLKELYEYTHYLPKEWEGRYHKEEIKLEFCKLYNLRIVILLRELTSLMITPFVLWFSLPSSAGRIVDFFRENSEYVDGLGYVCKYAMFNMKN
notes: Atg9, S. cerevisiae BY4741, conserved core region, residues 281–779; modified pET28a(+) vector; about 50% of the protein in the proteoliposomes has its cytoplasmic domains outside; liposomes of cholesterol, POPE, POPC, POPS, without PI; also called Atg9–PLs; Atg9-PL; source: E. coli Rosetta, solubilised in LDAO, purified (Ni-NTA, SEC), reconstituted in liposomes; not shown: His tag, C-terminal, …

Legend:
[1] = target: pentameric Atg1–kinase complex (Atg1^PC) (S. cerevisiae) (UniProt P53104); assay: SEC-MALS; Atg1^PC injected at 3.4 mg ml^−1, 100 μl, Superose-6 10/300GL
[2] = target: T1, Atg9^core (Atg9^281–779), reconstituted in proteoliposomes (S. cerevisiae) (UniProt Q12142)
T1 sequence: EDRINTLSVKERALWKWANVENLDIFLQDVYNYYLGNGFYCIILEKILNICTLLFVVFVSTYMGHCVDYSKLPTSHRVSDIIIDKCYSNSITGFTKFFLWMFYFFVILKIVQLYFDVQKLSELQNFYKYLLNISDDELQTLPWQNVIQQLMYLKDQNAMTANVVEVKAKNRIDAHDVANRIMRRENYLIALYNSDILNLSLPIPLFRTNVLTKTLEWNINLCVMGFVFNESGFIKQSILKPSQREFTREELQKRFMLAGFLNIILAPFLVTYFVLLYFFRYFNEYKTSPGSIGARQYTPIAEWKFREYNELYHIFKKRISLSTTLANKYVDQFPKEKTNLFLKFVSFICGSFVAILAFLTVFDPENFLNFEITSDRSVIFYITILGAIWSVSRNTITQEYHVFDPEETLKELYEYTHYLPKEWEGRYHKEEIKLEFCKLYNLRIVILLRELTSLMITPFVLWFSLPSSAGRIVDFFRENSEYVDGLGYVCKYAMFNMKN

[3] = target: T2, Atg1–Atg13 subcomplex (S. cerevisiae, UniProt P53104 1-897; Q06628 1-738, phosphothreonine at 226 (T226)); assay: SEC; complexes assembled from purified subunits or subcomplexes, 30 min at room temperature, then gel filtration on Superose 6; settings: both partners purified
T2 construct: Atg1, S. cerevisiae BY4741; Atg13, S. cerevisiae BY4741; source: assembled from purified subunits (Atg1 from High Five cells, Atg13 from E. coli Rosetta), gel filtration on Superose 6

[4] = target: the molecule itself; assay: dynamic light scattering; Stokes radii (RH) of the purified proteins and complexes in solution
[5] = target: B6; assay: co-floatation with proteoliposomes; Atg9 variant held in proteoliposomes (synthetic lipids without PI), partner in solution at 1:1, Nycodenz step gradient, 650,000g 2 h at 4 °C, 25 mM HEPES pH 7.0, 100 mM NaCl; top fraction read by SDS–PAGE or α-myc immunoblot; settings: both partners purified
[6] = target: the molecule itself; assay: not stated; recombinantly expressed Atg17 fragment; how the dimer was shown is not told
[7] = target: T3, Atg17^TC (myc-tagged Atg17) with Atg13 alone (S. cerevisiae, UniProt Q06628 1-738; Q06410 1-417; Q12421 1-196; Q12092 1-213); assay: co-floatation with proteoliposomes; Atg9 variant held in proteoliposomes (synthetic lipids without PI), partner in solution at 1:1, Nycodenz step gradient, 650,000g 2 h at 4 °C, 25 mM HEPES pH 7.0, 100 mM NaCl; top fraction read by SDS–PAGE or α-myc immunoblot; settings: both partners purified
T3 construct: Atg13, S. cerevisiae BY4741; Atg17, S. cerevisiae BY4741; Atg31, S. cerevisiae BY4741; Atg29, S. cerevisiae BY4741; it was not isolated as such; also called Atg17^TC in the presence of Atg13; source: purified Atg13 combined with purified Atg17^TC; not shown: myc, C-terminal, kept; copies: + 2 + 2 + 2

[8] = target: T4, Atg1^PC with myc-tagged Atg17 (S. cerevisiae, UniProt P53104 1-897; Q06628 1-738; Q06410 1-417; Q12421 1-196; Q12092 1-213, phosphothreonine at 226 (T226)); assay: as above; settings: both partners purified
T4 construct: Atg1, S. cerevisiae BY4741; Atg13, S. cerevisiae BY4741; Atg17, S. cerevisiae BY4741; Atg31, S. cerevisiae BY4741; Atg29, S. cerevisiae BY4741; the form detected by α-myc immunoblot in the co-floatation experiments; also called Atg17^TC combined with Atg1–Atg13; source: purified Atg1–Atg13 combined with purified Atg17^TC; not shown: myc, C-terminal, kept; copies: 2 + 2 + 2 + 2 + 2
T4 sequence (P53104 whole entry, chain 1 of 2): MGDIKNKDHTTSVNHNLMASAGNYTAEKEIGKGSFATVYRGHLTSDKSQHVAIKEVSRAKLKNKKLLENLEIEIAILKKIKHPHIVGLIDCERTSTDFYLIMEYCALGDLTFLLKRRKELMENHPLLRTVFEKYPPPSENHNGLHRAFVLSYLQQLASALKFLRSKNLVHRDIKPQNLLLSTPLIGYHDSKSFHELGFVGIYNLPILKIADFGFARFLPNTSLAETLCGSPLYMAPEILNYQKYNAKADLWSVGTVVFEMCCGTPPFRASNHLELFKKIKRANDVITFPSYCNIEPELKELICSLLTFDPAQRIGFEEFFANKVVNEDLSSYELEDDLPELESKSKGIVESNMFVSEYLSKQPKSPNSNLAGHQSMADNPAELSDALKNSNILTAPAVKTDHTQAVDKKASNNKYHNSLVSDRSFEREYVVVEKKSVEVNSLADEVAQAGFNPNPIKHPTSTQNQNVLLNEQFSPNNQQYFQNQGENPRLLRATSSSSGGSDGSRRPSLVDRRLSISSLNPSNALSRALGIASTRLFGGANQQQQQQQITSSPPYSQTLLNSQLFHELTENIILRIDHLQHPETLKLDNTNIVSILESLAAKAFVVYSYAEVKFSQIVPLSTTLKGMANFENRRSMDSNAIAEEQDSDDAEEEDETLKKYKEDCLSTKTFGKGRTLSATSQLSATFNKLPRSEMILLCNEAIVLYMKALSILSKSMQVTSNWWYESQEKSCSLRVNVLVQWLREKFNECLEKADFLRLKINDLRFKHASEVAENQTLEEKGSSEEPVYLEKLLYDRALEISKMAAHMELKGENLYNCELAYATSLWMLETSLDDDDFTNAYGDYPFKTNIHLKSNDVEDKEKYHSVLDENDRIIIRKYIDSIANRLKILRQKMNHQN
T4 sequence (Q06628 whole entry, chain 2 of 2): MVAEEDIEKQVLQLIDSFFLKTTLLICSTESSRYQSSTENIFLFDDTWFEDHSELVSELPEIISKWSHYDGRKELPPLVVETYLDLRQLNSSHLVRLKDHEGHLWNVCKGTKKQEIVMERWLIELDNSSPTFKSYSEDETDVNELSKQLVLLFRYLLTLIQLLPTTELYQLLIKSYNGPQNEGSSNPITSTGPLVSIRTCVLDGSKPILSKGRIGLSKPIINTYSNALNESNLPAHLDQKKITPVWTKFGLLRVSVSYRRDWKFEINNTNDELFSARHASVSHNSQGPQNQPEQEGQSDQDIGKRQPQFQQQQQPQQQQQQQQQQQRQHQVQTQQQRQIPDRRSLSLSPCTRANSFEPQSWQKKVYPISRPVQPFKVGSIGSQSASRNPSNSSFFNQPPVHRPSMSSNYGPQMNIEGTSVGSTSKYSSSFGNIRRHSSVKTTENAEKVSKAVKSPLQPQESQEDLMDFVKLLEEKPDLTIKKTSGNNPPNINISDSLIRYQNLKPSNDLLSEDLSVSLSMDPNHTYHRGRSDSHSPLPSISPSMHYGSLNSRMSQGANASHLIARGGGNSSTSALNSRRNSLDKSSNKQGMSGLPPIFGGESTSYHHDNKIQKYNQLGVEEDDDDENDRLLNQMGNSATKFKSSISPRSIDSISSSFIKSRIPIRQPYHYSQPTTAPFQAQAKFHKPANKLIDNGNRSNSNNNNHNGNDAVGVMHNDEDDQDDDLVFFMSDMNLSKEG

T2 sequence (P53104 whole entry, chain 1 of 2): as the sequence (P53104 whole entry, chain 1 of 2) above
T2 sequence (Q06628 whole entry, chain 2 of 2): as the sequence (Q06628 whole entry, chain 2 of 2) above
T3 sequence (Q06628 whole entry, one chain of several): as the sequence (Q06628 whole entry, chain 2 of 2) above

“pentameric Atg1–kinase complex (Atg1^PC), P53104 1-897; Q06628 1-738; Q06410 1-417; Q12421 1-196; Q12092 1-213” showed a stoichiometry N [1] of 2.

B1: Atg17–Atg31–Atg29 trimeric complex (Atg17^TC) (complex, S. cerevisiae)
chain 1: MNEADVTKFVNNARKTLTDAQLLCSSANLRIVDIKKKLSSWQLSISKLNFLIVGLRQQGKFLYTILKEGIGTKLIQKQWNQAVLVVLVDEMKYWQYEITSKVQRLDGIVNELSISEKDDTDPSKLGDYISRDNVNLLNDKLKEVPVIERQIENIKLQYENMVRKVNKELIDTKLTDVTQKFQSKFGIDNLMETNVAEQFSRELTDLEKDLAEIMNSLTQHFDKTLLLQDKKIDNDEREELFKVVQGDDKELYNIFKTLHEVIDDVDKTILNLGQFLQAKIKEKTELHSEVSEIINDFNRNLEYLLIFKDISNLIDSFKNSCTQDIQTTKELCEFYDNFEESYGNLVLEAKRRKDVANRMKTILKDCEKQLQNLDAQDQEERQNFIAENGTYLPETIWPGKIDDFSSLYTLNYNVKNP
chain 2: MNVTVTVYDKNVKYRLEENIKNNKGPSNDDQPAYNNESKSTDGSDYAMFPTNIKYIFEDNNDELVDSSDAALTAGIDKVGDELENVIIVQLDESGSLEDITLISDQYELLSHRTNSLSLEENQMRTLSSHGDDKSNDEEEELSVDSDRFRVDSDIELDVISQFCDLSPFLRDLSLNDLIKLYVTQNEQLQMLSNSV
chain 3: MIMNSTNTVVYIKVKGRRPQGFLDPPKFEWNGTKERQLWTMVSNLNYSQDQIDWQNLSKIFETPEFFLKKRTYKLFAEHLELLQLQLEKKRDLEKYSNDQVNEGMSDLIHKYTPTLQNDNLLNVSASPLTTERQDSEEVETEVTNEALQHLQTSKILNIHKKTSDSENKPNDKLDKDGINKEMECGSSDDDLSSSLSVSKSALEEALMDRLQF
notes: Atg17, S. cerevisiae BY4741; Atg31, S. cerevisiae BY4741; Atg29, S. cerevisiae BY4741; dimer of trimers through Atg17; also produced by combining Atg17 with co-expressed Atg31–Atg29; also called Atg17-Atg31–Atg29 complex; source: E. coli Rosetta, co-expressed from pST39, purified (Ni-NTA, SEC); not shown: His6, N-terminal, cleaved; copies: 2 + 2 + 2
With B1 the RH of Atg9–PLs prepared in the presence of Atg17^TC, by DLS (vesicle tethering) [2] was 72 nm, the binding result [3] was “binds” and the “stoichiometry N” value [4] was 2.

B2: myc-tagged Atg17 (Atg17^myc), recombinant (natural protein, S. cerevisiae, UniProt Q06410 1-417, looked up)
chain: MNEADVTKFVNNARKTLTDAQLLCSSANLRIVDIKKKLSSWQLSISKLNFLIVGLRQQGKFLYTILKEGIGTKLIQKQWNQAVLVVLVDEMKYWQYEITSKVQRLDGIVNELSISEKDDTDPSKLGDYISRDNVNLLNDKLKEVPVIERQIENIKLQYENMVRKVNKELIDTKLTDVTQKFQSKFGIDNLMETNVAEQFSRELTDLEKDLAEIMNSLTQHFDKTLLLQDKKIDNDEREELFKVVQGDDKELYNIFKTLHEVIDDVDKTILNLGQFLQAKIKEKTELHSEVSEIINDFNRNLEYLLIFKDISNLIDSFKNSCTQDIQTTKELCEFYDNFEESYGNLVLEAKRRKDVANRMKTILKDCEKQLQNLDAQDQEERQNFIAENGTYLPETIWPGKIDDFSSLYTLNYNVKNP
notes: Atg17, S. cerevisiae BY4741, open reading frame from genomic DNA; expressed from pST39 with a myc-tag at the C-terminus of Atg17; also called recombinant myc-tagged Atg17; source: E. coli Rosetta, purified; not shown: myc, C-terminal, kept
B2: binds [5].

B3: thioredoxin-tagged Atg17^235–417 (domain or fragment, S. cerevisiae, UniProt Q06410 235-417, looked up)
chain: DEREELFKVVQGDDKELYNIFKTLHEVIDDVDKTILNLGQFLQAKIKEKTELHSEVSEIINDFNRNLEYLLIFKDISNLIDSFKNSCTQDIQTTKELCEFYDNFEESYGNLVLEAKRRKDVANRMKTILKDCEKQLQNLDAQDQEERQNFIAENGTYLPETIWPGKIDDFSSLYTLNYNVKNP
notes: source: E. coli Rosetta, purified
In the case of B3, the binding result [5] is reported as “binds” and the “stoichiometry N” value [6] is reported as 2.

B4: thioredoxin-tagged Atg17^235–354 (domain or fragment, S. cerevisiae, UniProt Q06410 235-354, looked up)
chain: DEREELFKVVQGDDKELYNIFKTLHEVIDDVDKTILNLGQFLQAKIKEKTELHSEVSEIINDFNRNLEYLLIFKDISNLIDSFKNSCTQDIQTTKELCEFYDNFEESYGNLVLEAKRRKD
notes: as for B3
B4: binds [5].

B5: thioredoxin-tagged Atg17^354–417 (domain or fragment, S. cerevisiae, UniProt Q06410 354-417, looked up)
chain: DVANRMKTILKDCEKQLQNLDAQDQEERQNFIAENGTYLPETIWPGKIDDFSSLYTLNYNVKNP
notes: also called dimerization domain; source: E. coli Rosetta, purified
B5: binds [5].

B6: binds [7]; binds [8].

B7: Atg17^1–354-Atg31–Atg29 (Atg17^monoTC) (complex, S. cerevisiae)
chain 1: MNEADVTKFVNNARKTLTDAQLLCSSANLRIVDIKKKLSSWQLSISKLNFLIVGLRQQGKFLYTILKEGIGTKLIQKQWNQAVLVVLVDEMKYWQYEITSKVQRLDGIVNELSISEKDDTDPSKLGDYISRDNVNLLNDKLKEVPVIERQIENIKLQYENMVRKVNKELIDTKLTDVTQKFQSKFGIDNLMETNVAEQFSRELTDLEKDLAEIMNSLTQHFDKTLLLQDKKIDNDEREELFKVVQGDDKELYNIFKTLHEVIDDVDKTILNLGQFLQAKIKEKTELHSEVSEIINDFNRNLEYLLIFKDISNLIDSFKNSCTQDIQTTKELCEFYDNFEESYGNLVLEAKRRKD
chain 2: MNVTVTVYDKNVKYRLEENIKNNKGPSNDDQPAYNNESKSTDGSDYAMFPTNIKYIFEDNNDELVDSSDAALTAGIDKVGDELENVIIVQLDESGSLEDITLISDQYELLSHRTNSLSLEENQMRTLSSHGDDKSNDEEEELSVDSDRFRVDSDIELDVISQFCDLSPFLRDLSLNDLIKLYVTQNEQLQMLSNSV
chain 3: MIMNSTNTVVYIKVKGRRPQGFLDPPKFEWNGTKERQLWTMVSNLNYSQDQIDWQNLSKIFETPEFFLKKRTYKLFAEHLELLQLQLEKKRDLEKYSNDQVNEGMSDLIHKYTPTLQNDNLLNVSASPLTTERQDSEEVETEVTNEALQHLQTSKILNIHKKTSDSENKPNDKLDKDGINKEMECGSSDDDLSSSLSVSKSALEEALMDRLQF
notes: Atg31, S. cerevisiae BY4741; Atg29, S. cerevisiae BY4741; source: E. coli Rosetta, co-expressed from pST39, purified (Ni-NTA, SEC); not shown: His6, N-terminal, cleaved; copies: + +
B7: binds [3].
